The text below walks through data of US20040253214A1.

This experiment concerns the target bovine EGF receptor on MDBK cells (bovine) (UniProt F1N7F3). The experiment in a line: cell-based or functional assay.

In turn, “EXGaLVMoT chimeric envelope (EGF displayed through a factor Xa-cleavable linker as an N-terminal extension of the Gibbon Ape Leukaemia virus SU glycoprotein), on retroviral vector particles (from UniProt P01133 971-1023; P21415 43-653; P03385 633-665)” showed a Titre of GaLV vectors on EGF-R positive cells, MDBK, +Xa (displayed EGF domain cleaved with factor Xa before infection) of 12 efu/ml and a Titre of GaLV vectors on EGF-R positive cells, MDBK, -Xa below 1 efu/ml.
